These results are taken from US11634486B2, “Anti-SEZ6L2 antibodies and antibody drug conjugates” (Bluefin BioMedicine, Inc., priority 2016, dated 2023).

The test relates to small cell lung cancer cell line NCI-H209. The test can be described thus: ADC combined with PARP inhibitor, cell viability. Format: cell-based, human. The following applies: 10 pM conjugate plus olaparib 10 nM to 10 uM, six days.

Description: Briefly, the small cell lung cancer cell line NCI-H209, which expresses ˜10,000 copies of SEZ6L2 on the cell surface, was seeded onto 96 well plate at 5000 cells/well Immediately after seeding, 10 pM of 3E2-PBD or isotype control hIgG-PBD (bearing a drug antibody ratio (DAR) of 1.7 and 2.5 respectively) were added to the wells in complete culture medium. A PARP inhibitor (olaparib) was then added to these wells such that the final concentration ranged from 10 nM to 10 uM. The PARP inhibitor was also tested on cells without an ADC. Each treatment was replicated in 2 wells and after six days, the PARP inhibitor plus modulator-mediated PBD cytotoxicity was assessed by quantifying the remaining number of live cells using Cell Titer Glo™. Cell viability was graphed by Prism™ using ratio of cell viability of test conditions to that of control wells treated with growth medium only.

B1: 3E2-PBD (conjugate)
VH: EVQLVESGGGLVQPGGSLKLSCAASGFSFNTITMNWVRQASGKGLEWVGRIRSKSNNYATYYADAVKDRFTISRDDSKNTAYLQMNSLKTEDTAVYYCVRGIFSGYVYAMDYWGQGTLVTVSSA
VL: DVVMTQSPLSLPVTVGQPASISCRSSQSIVHSNGNTYLEWFQQRPGQSPRVLIYKVSNRFSGVPDRFSGSGSGTDFTLKISRVEAEDVGVYYCFQGSHVPYTFGGGTKLEIKR
On to B1, for which the “percent viable cells, conjugate combined with PARP inhibitor” value is “additive effect”.
